Experimental data reported in article PMC9323360, “Cloning, Expression, Purification, and Characterization of β-Galactosidase from Bifidobacterium longum and Bifidobacterium pseudocatenulatum” (Molecules, 2022).

B1: BLGLB1 (Bifidobacterium longum) (protein)
chain: MTTRRTFRWPSLLTESGRGIAFGGDYNPDQWSEETLDEDIRLMVQAGVNTVALAIFSWDKIEPREGEFTFEWLDHVIDKLGAAGIAVDLASATATAPLWLYERHPEVLPIDRYGHVVNAGSRQSWQPTSPVLKEYALRLCRKLAEHYKDNPYVTAWHMGNEYGWNNRYDYSDNALAAFRTWCEAKYGTVDALNEAWGTAFWSQHVNSFDEVLLPRHMGGDSMVNPPQQLDYERFGNDMLLDFYKAERDAIEEICPGKPFTTNFMVSTDQCTMDYAQWANEVDFVSNDHYFHEGESHLDELACSDALMDSLALGKPWYVMEHSTSAVQWKPLNMRKRAGELMRDSLAHVAMGADAINFFQWRQSASGAEAFHSAMVPHAGSDTKLFRGVCELGAALKTLSDAGVQDTELKRADTAILFSAESEWATRSETLPSMKLNHWHDVRDWYRGYLDAGARADVVPLAYDWSGYQTIVLPTVIALSDEDTRRIADFAENGGTVIVGYATGLIDEHFHIGLGGYPGAGNGLLRDMLGIRSEEFNILGEEAEDEPAEIGLSNGLTTRLWQNDVTSVAPDTRVLATYVGTAAADWELDGVPAITSHPHGQGAAIYVGCDLGRHDITHLLKELNTTAPSDERAPDQRPGGGEINAATTTAAAATHDPRILHTIRQSSDGTIRFDFYLNRSKQPVAVNGVEGDPIIAHRCETDAVGYTLNRNAILIAKTSC
B2: BPGLB1 (Bifidobacterium pseudocatenulatum) (protein)
chain: MHRTFKWPELLTDNGKGIAYGGDYNPDQWSEDVWDEDVRLMKQAGVNTVAVAIFSWDRIQPEENRWDFGWLDRIIDKLGKAGIAVDLASATATAPLWLYEKHPEVLPQDKFGHPVNAGSRQSWSPTSPVFKEYALTLCRKLAERYGTNPYVTAWHMGNEYGWNNRYDYSDNALNAFRLWCERKYGTIENLNKAWGTTFWGQEMNGFHEVLIPRFMGADSMVNPGQKLDFERFGNDMLLDFYKAERDAIAEICPDKPFTTNFMVSTDQCCMDYADWAEEVDFVSNDHYFHEGESHIDELFCSDALMDSLALGKPWYVMEHSTSAVQWKPLNARKRKGETVRDSIAHVAMGADAINFFQWRASAFGAESFHSALVPHAGEDTKLFRQVCELGAALKTLGDAGVQGTELEQSDTAILFSAESEWATRSETLPSMKLNHWHDVRDWYRAFLNAGTRADIVPLKYDWNAYKTVVLPTVIMLSAEDTQRLADFAAAGGRVVIGYATGLIDENFHTWLGGYPGAGDGLLREMLGIRGEEFNILGAEAEGEPSEIRLSSGAVTRLWQNDVNVDGERAQVLATYEGEEADEWELDGTAAITRNPYGSGETYFVGCDLNVADLTEFVRENIVEDSANVANPADSDVLHTVRKSADATFDFYLPRGKKEIALQGIEGEPIYLFQAEAEERTGSYTVHRNGVLVVKRA

Substrate: O=[N+]([O-])c1ccccc1O[C@@H]1O[C@H](CO)[C@H](O)[C@H](O)[C@H]1O
Test: purified protein

| Protein | Km (pH 5.5, 45 °C) | Vmax (pH 5.5, 45 °C) | kcat (pH 5.5, 45 °C) | kcat/Km (pH 5.5, 45 °C) | Km (pH 6.0, 45 °C) | Vmax (pH 6.0, 45 °C) | kcat (pH 6.0, 45 °C) | kcat/Km (pH 6.0, 45 °C) |
| --- | --- | --- | --- | --- | --- | --- | --- | --- |
| B1 | 1900 ± 100 µM | 3700 ± 100 (oNPG) | 1700 ± 40 s⁻¹ | 870 (oNPG) | – | – | – | – |
| B2 | – | – | – | – | 1300 ± 300 µM | 1.1 ± 0.1 (oNPG) | 0.5 ± 0.02 s⁻¹ | 0.36 (oNPG) |
